Assay results as given in paper PMC12257531, “Chaperone-Mediated Regulation of Tau Phase Separation, Fibrillation, and Toxicity” (Journal of the American Chemical Society, 2025).

Target: Tau441 (recombinant full-length Tau protein), monomeric (UniProt P10636-8 1-441)
Assay: cell-based or functional assay

Sequence of Tau441 (recombinant full-length Tau protein), monomeric (P10636 other isoform, or with tags, fused parts or gaps): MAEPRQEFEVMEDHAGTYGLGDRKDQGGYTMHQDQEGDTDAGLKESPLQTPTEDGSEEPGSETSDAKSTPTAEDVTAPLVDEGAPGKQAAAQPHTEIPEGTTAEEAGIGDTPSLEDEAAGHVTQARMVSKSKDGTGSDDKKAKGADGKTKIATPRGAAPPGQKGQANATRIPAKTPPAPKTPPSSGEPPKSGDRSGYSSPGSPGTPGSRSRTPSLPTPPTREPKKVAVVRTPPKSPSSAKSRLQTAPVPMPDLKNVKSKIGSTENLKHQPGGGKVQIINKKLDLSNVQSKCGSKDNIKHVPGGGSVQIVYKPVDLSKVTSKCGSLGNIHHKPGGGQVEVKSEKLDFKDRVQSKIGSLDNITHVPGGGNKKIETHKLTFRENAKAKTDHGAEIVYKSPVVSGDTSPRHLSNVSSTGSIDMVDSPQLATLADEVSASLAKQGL

B1: Bri2 BRICHOS domain R221E (residues 113-231 of Bri2), oligomeric fraction (domain or fragment, human)
chain: GSQTIEENIKIFEEEEVEFISVPVPEFADSDPANIVHDFNKKLTAYLDLNLDKCYVIPLNTSIVMPPRNLLELLINIKAGTYLPQSYLIHEHMVITDRIENIDHLGFFIYELCHDKETYKL
turbidity (absorbance at 350 nm) of 20 uM Tau441 with 8% PEG8000 and sub- to superstoichiometric Bri2 BRICHOS, relative to Tau441 droplets alone: 2 fold
